Literature values as cited in publication PMC4468388.

Molecular target: insulin receptor (Homo sapiens) (UniProt P06213)
Chain of UniProt P06213 (P06213 763-1382): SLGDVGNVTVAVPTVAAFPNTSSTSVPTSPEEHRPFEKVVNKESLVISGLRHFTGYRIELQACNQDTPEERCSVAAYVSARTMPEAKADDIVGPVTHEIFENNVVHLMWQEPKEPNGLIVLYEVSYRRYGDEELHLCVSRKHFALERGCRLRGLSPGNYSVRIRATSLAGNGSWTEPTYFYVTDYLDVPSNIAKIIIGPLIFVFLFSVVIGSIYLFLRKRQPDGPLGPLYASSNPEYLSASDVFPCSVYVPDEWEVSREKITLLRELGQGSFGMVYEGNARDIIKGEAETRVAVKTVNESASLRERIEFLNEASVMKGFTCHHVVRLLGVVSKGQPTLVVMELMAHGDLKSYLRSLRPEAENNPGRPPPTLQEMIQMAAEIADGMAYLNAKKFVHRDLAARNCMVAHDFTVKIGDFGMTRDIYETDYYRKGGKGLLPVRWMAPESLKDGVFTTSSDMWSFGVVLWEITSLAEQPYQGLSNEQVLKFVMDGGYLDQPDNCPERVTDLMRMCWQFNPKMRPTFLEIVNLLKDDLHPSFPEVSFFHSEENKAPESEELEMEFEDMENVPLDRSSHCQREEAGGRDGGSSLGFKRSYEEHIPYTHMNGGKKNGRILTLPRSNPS

Chain of insulin (P01308 90-110): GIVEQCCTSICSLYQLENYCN

Kd: < 1 nM
Substance: insulin (from UniProt P01308)
